Assay results as given in paper PMC4751538, “Structural Insights into the Tetrameric State of Aspartate-β-semialdehyde Dehydrogenases from Fungal Species” (Scientific Reports, 2016).
Positions count from the first letter of the chain named. In names and notes the source's numbering stands.

How the values were obtained:
[1] = molecular target: Aspartate-β-semialdehyde dehydrogenase from Cryptococcus neoformans (C. neoformans); assay: native gel or EMSA; native PAGE (3-12%), migration against molecular weight standards
[2] = molecular target: Aspartate-β-semialdehyde dehydrogenase from Streptococcus pneumoniae (Streptococcus pneumoniae); assay: as above
[3] = molecular target: Aspartate-β-semialdehyde dehydrogenase from Streptococcus pneumoniae (Streptococcus pneumoniae); assay: AUC; sedimentation velocity, 4 °C, 20 mM Tris pH 8.0, 100 mM NaCl, all proteins at OD280 = 0.85, 50,000 rpm, Sedfit
[4] = molecular target: T1, trASADH (T. rubrum aspartate-β-semialdehyde dehydrogenase) (Trichophyton rubrum, UniProt A0A080WMA9); assay: isothermal titration calorimetry; assay type: binding
T1 construct: gene TERG_03598; full length 362 aa, N-terminal 6xHis tag (pET-28a), E. coli; homotetramer
T1 sequence (A0A080WMA9 1-362): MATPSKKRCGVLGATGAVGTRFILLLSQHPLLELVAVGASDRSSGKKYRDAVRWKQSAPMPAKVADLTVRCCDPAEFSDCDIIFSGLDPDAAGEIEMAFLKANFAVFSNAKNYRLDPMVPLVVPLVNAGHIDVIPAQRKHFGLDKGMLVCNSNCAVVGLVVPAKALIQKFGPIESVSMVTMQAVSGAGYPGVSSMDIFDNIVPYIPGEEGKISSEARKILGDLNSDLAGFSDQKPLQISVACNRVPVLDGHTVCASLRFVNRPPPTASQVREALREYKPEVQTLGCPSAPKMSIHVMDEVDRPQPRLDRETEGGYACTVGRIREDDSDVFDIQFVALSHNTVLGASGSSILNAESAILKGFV

[5] = molecular target: Aspartate-β-semialdehyde dehydrogenase from Aspergillus fumigatus (A. fumigatus); assay: native gel or EMSA; native PAGE (3-12%), migration against molecular weight standards
[6] = molecular target: Aspartate-β-semialdehyde dehydrogenase from Vibrio cholerae (V. cholerae); assay: as above
[7] = molecular target: the molecule itself; assay: cell-based or functional assay
[8] = molecular target: the molecule itself; assay: SEC; Superose 6 PC3.2/30, 20 mM Tris-HCl pH 8.0, 100 mM NaCl, ~3 mg/ml, calibrated with mass standards (also the final Superdex 200 purification step)
[9] = molecular target: the molecule itself; assay: AUC; sedimentation velocity, 4 °C, 20 mM Tris pH 8.0, 100 mM NaCl, all proteins at OD280 = 0.85, 50,000 rpm, Sedfit
[10] = molecular target: the molecule itself; assay: native gel or EMSA; native PAGE (3-12%), migration against molecular weight standards

Aspartate-β-semialdehyde dehydrogenase from Cryptococcus neoformans (enzyme)
stoichiometry N [1]: 4

Aspartate-β-semialdehyde dehydrogenase from Streptococcus pneumoniae (enzyme)
stoichiometry N [2]: 2
stoichiometry N [3]: 2

NC(=O)c1ccc[n+]([C@@H]2O[C@H](COP(=O)(O)OP(=O)(O)OC[C@H]3O[C@@H](n4cnc5c(N)ncnc54)[C@H](OP(=O)(O)O)[C@@H]3O)[C@@H](O)[C@H]2O)c1 [NADP]
Kd [4]: 76.9 µM

Aspartate-β-semialdehyde dehydrogenase from Aspergillus fumigatus (enzyme)
stoichiometry N [5]: 4

Aspartate-β-semialdehyde dehydrogenase from Vibrio cholerae (enzyme)
stoichiometry N [6]: 2

B1: trASADH with mutation D196A (enzyme)
chain: SKKRCGVLGATGAVGTRFILLLSQHPLLELVAVGASDRSSGKKYRDAVRWKQSAPMPAKVADLTVRCCDPAEFSDCDIIFSGLDPDAAGEIEMAFLKANFAVFSNAKNYRLDPMVPLVVPLVNAGHIDVIPAQRKHFGLDKGMLVCNSNCAVVGLVVPAKALIQKFGPIESVSMVTMQAVSGAGYPGVSSMAIFDNIVPYIPGEEGKISSEARKILGDLNSDLAGFSDQKPLQISVACNRVPVLDGHTVCASLRFVNRPPPTASQVREALREYKPEVQTLGCPSAPKMSIHVMDEVDRPQPRLDRETEGGYACTVGRIREDDSDVFDIQFVALSHNTVLGASGSSILNAESAILKGFV
notes: Aspartate-β-semialdehyde dehydrogenase of Trichophyton rubrum BMU01672 (362 aa) with the point mutation D196A; parent as m1; source: E. coli B834(DE3) or Rosetta(DE3), purified (Ni-NTA, Hitrap Q, Superdex 200)
enzymatic activity (kcat) at 25 °C, tetrameric single mutant [7]: 15.9 s⁻¹
stoichiometry N [8]: 4

B2: Aspartate-β-semialdehyde dehydrogenase from Trichophyton rubrum, wild type (enzyme)
chain: B1 chain with A192D
notes: Aspartate-β-semialdehyde dehydrogenase (ASADH) of Trichophyton rubrum BMU01672, wild type, 362 aa as printed; theoretical monomer 38.7 kDa; The apo crystal (4ZHS) was a selenomethionine derivative; Cloned in pET-28a; also called trASADH; ASADH; source: E. coli B834(DE3) or Rosetta(DE3), purified (Ni-NTA, Hitrap Q, Superdex 200)
stoichiometry N [9]: 4

B3: trASADH with the triple mutation R309A-D196A-F198A (enzyme)
chain: B1 chain with F194A, R305A
notes: Aspartate-β-semialdehyde dehydrogenase of Trichophyton rubrum BMU01672 (362 aa) with R309A, D196A and F198A; parent as m1; also called trASADH R309A-D196A-F198A; dimeric triple mutant; source: E. coli B834(DE3) or Rosetta(DE3), purified (Ni-NTA, Hitrap Q, Superdex 200)
stoichiometry N [9]: 2

B4: trASADH with mutation F198A (enzyme)
chain: B1 chain with A192D, F194A
notes: Aspartate-β-semialdehyde dehydrogenase of Trichophyton rubrum BMU01672 (362 aa) with the point mutation F198A; parent as m1; also called trASADH-F198A; Mutant F198A; source: E. coli B834(DE3) or Rosetta(DE3), purified (Ni-NTA, Hitrap Q, Superdex 200)
enzymatic activity (kcat) at 25 °C, tetrameric single mutant [7]: 15.7 s⁻¹
stoichiometry N [9]: 4

B5: trASADH with mutation R309A (enzyme)
chain: B1 chain with A192D, R305A
notes: Aspartate-β-semialdehyde dehydrogenase of Trichophyton rubrum BMU01672 (362 aa) with the point mutation R309A; parent as m1; source: E. coli B834(DE3) or Rosetta(DE3), purified (Ni-NTA, Hitrap Q, Superdex 200)
enzymatic activity (kcat) at 25 °C, tetrameric single mutant [7]: 12.9 s⁻¹
stoichiometry N [8]: 4

B6: trASADH with mutation Y189A (enzyme)
chain: B1 chain with Y185A, A192D
notes: Aspartate-β-semialdehyde dehydrogenase of Trichophyton rubrum BMU01672 (362 aa) with the point mutation Y189A; parent as m1; also called trASADH-Y189A; source: E. coli B834(DE3) or Rosetta(DE3), purified (Ni-NTA, Hitrap Q, Superdex 200)
stoichiometry N [9]: 4

B7: Aspartate-β-semialdehyde dehydrogenase from Candida albicans (enzyme)
chain: MSVKKAGVLGATGSVGQRFILLLSKHPEFEIHALGASSRSAGKKYKDAASWKQTETLPETEQDIVVQECKPEGNFLECDVVFSGLDADVAGDIEKSFVEAGLAVVSNAKNYRREKDVPLVVPIVNPEHIDVVENKVKQAVSKGGKKPGFIICISNCSTAGLVAPLKPLVEKFGPIDALTTTTLQAISGAGFSPGVSGMDILDNIVPYISGEEDKLEWETKKILGGVNAEGTEFVPIPESEMKVSAQCNRVPVIDGHTECISLRFANRPAPSVEDVKQCLREYECAASKLGCHSAPKQTIHVLDQPDRPQPRLDRDRDSGYGVSVGRIREDSLLDFKMVVLSHNTIIGAAGAGILIAEILKAKNII
notes: Aspartate-β-semialdehyde dehydrogenase of Candida albicans (fungal ASADH); The construct used for native PAGE is not described; also called caASADH; C. albicans ASADH
stoichiometry N [10]: 4
